Data as given in the supplement of paper PMC9732359.
± gives the uncertainty stated by the source.

Test: protein stability index of a GFP-peptide fusion (yeast GPS) (PSI 1-4); higher = more stable; sorted into four equal gates, so the index is relative within each strain
Method in brief: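 The protein stability index combines read frequencies across sorting gates, each weighted by its gate number and then summed. To obtain those frequencies, a pooled yeast library of GFP fusions to tiled 17-residue yeast protein peptides, on a plasmid also expressing Cherry, was grown to mid-log phase in leucine-free medium. The cells were sorted into four equal gates by GFP/Cherry ratio before plasmid amplification by PCR and Illumina sequencing.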

Sequence | protein stability index (doa10∆) | protein stability index (pdr5∆) | protein stability index (san1∆) | protein stability index (ubr1∆)
RLLEKSELPDIYSRDIG [SNF2] | 3.12 ± 0.14 | 3.37 ± 0.13 | 2.96 ± 0.084 | 3.21 ± 0.17
FLVEYEGQENNYNSTSR [SIR4] | 2.85 ± 0.093 | 2.76 ± 0.08 | 2.29 ± 0.1 | 3.24 ± 0.052
NENPYNNGVSNLWKNIF [COR1] |  | 1.96 ± 0.12 | 2.01 ± 0.15 | 1.86 ± 0.07
IDMHLIYGVEWLIEGKL [YDL116W/NUP84] | 2.64 ± 0.17 | 2.58 ± 0.093 |  | 2.33 ± 0.099
PEYFESPLQSSKSKQSF [YMR129W/POM152] | 2.78 ± 0.12 | 2.8 ± 0.08 | 2.91 ± 0.084 | 2.96 ± 0.076
KLYFQLFLNTGCLSVLY [SRP68] | 1.47 ± 0.038 | 1.19 ± 0.041 | 1.19 ± 0.1 | 1.21 ± 0.043
NAASQQPTPRSASNTAK [GAL11] | 2.84 ± 0.082 | 2.68 ± 0.055 | 2.78 ± 0.049 | 2.67 ± 0.039
ASRHGQKGTIGITYRRE [RPB2] | 2.53 ± 0.08 | 1.84 ± 0.051 | 2.39 ± 0.082 | 2.22 ± 0.051
KRKTNIIMFVGLQGSGK [SRP54] | 2.69 ± 0.067 | 2.78 ± 0.068 | 3.09 ± 0.06 | 2.87 ± 0.038
MSLINDAMVTRTPVIIS [SMD2] | 1.26 ± 0.07 | 1.7 ± 0.066 | 1.47 ± 0.12 | 1.52 ± 0.085
AGIVPVSANTPKSLNSN [SWI1] | 3.07 ± 0.059 | 3.04 ± 0.066 | 3.04 ± 0.048 | 3.22 ± 0.043
LKPEIEKLTSKSLDEQL [LRP1] | 3.22 ± 0.083 | 3.26 ± 0.07 | 2.85 ± 0.077 | 2.88 ± 0.063
LQQQQQVVTTVASQSPH [SNF6] | 1.81 ± 0.08 | 1.92 ± 0.074 | 2.03 ± 0.11 | 2.25 ± 0.049
ESAAVYNGRGARERKTA [SNF2] | 2.55 ± 0.067 | 2.3 ± 0.057 | 2.76 ± 0.06 | 2.78 ± 0.06
RIHRLARYYRTVAVLPP [RPS13] | 1.83 ± 0.088 | 1.8 ± 0.06 | 2.44 ± 0.074 | 2.11 ± 0.046
KKNRDKKIFGTGKRLAK [RPS24A] | 3.4 ± 0.05 | 3.23 ± 0.039 | 3.291 ± 0.028 | 3.26 ± 0.033
QQIWKSPNFKNYLKYLE [SOH1] | 1.72 ± 0.047 | 1.91 ± 0.047 | 1.61 ± 0.047 | 2.22 ± 0.062
KAEVTQLSNGIVVATEH [COR1] | 2.58 ± 0.17 | 3.15 ± 0.11 | 3.18 ± 0.18 | 2.96 ± 0.11
LEIDNKDSVTECSKDMK [SIR4] | 3.46 ± 0.14 | 3.53 ± 0.083 | 3.4 ± 0.12 | 3.63 ± 0.066
LLINTNFNKFFKIWHGE [PCI8] | 1.37 ± 0.04 | 1.38 ± 0.04 | 1.57 ± 0.061 | 1.37 ± 0.044
TVKENESDSKLQCHISG [UBP6] | 3.28 ± 0.098 | 3.3 ± 0.11 | 3.05 ± 0.087 | 3.15 ± 0.1

Sequence | protein stability index (doa10∆) | protein stability index (pdr5∆) | protein stability index (san1∆) | protein stability index (ubr1∆)
VSSLPGSTDKSLDFLNQ [COR1] | 3.45 ± 0.18 |  | 3.02 ± 0.28 | 
FPGKPVDVQAPTDDKTL [YOR098C/NUP1] | 2.78 ± 0.068 | 3.02 ± 0.1 | 2.93 ± 0.089 | 2.75 ± 0.071
NAPTFNPKYDTSNASMN [YAR002W/NUP60] | 3.01 ± 0.046 | 3.08 ± 0.043 | 2.9 ± 0.036 | 3.17 ± 0.046
EPIKVNVRVGQAVETVG [RPN1] | 1.41 ± 0.16 | 2.26 ± 0.11 | 2.47 ± 0.11 | 2.44 ± 0.15
KNMGLVPMKEENLEESF [SSN2] | 3.07 ± 0.2 | 3.38 ± 0.13 | 2.95 ± 0.17 | 
QLNCIDTQFTKLLDDNP [SRB8] | 2.44 ± 0.074 | 2.7 ± 0.068 | 2.57 ± 0.065 | 2.9 ± 0.048
SVANTPSEIPDAHKAEQ [SWI3] | 3.04 ± 0.066 | 3.25 ± 0.065 | 3.42 ± 0.077 | 3.03 ± 0.061
LNTLNNVVEIWVFSYLR [SIR3] | 1.56 ± 0.043 | 1.6 ± 0.063 | 1.42 ± 0.11 | 1.58 ± 0.053
TKRLGTPESVKPANASH [RGR1] | 2.37 ± 0.08 | 2.63 ± 0.077 | 2.26 ± 0.11 | 2.76 ± 0.095
KKVNGTSYKKWSFDLPE [PRP8] | 2.2 ± 0.07 | 2.36 ± 0.084 | 2.25 ± 0.1 | 3.35 ± 0.12
QEELKKRQELEEASQQQ [MED2] | 2.96 ± 0.058 | 3.2 ± 0.076 | 2.47 ± 0.071 | 3.29 ± 0.046
KIFIAVVWYQRLTMGNV [RRI2] | 1.3 ± 0.044 | 1.25 ± 0.038 | 1.28 ± 0.082 | 1.27 ± 0.036
IRNCATEAGFFAIRDDR [RPT4] | 2.82 ± 0.062 | 3.24 ± 0.079 | 2.78 ± 0.097 | 2.91 ± 0.042
LISNAIYGKKTMVIQDE [ECM29] | 1.58 ± 0.25 | 1.83 ± 0.27 |  | 1.4 ± 0.14
LHPYNSRGLFEKKLMQD [YDL116W/NUP84] | 2.89 ± 0.18 | 3.28 ± 0.16 | 2.86 ± 0.1 | 2.91 ± 0.13
SDDDNIGQSEELSDKEI [ISW2] | 3.31 ± 0.1 | 3.44 ± 0.09 | 3.31 ± 0.08 | 3.41 ± 0.12
QNCWSLINDSYINDVHL [SSN8] | 3.35 ± 0.063 | 3.22 ± 0.069 | 3.34 ± 0.054 | 3.23 ± 0.055
GLGYVFEFQYLTIGVKF [SRB5] | 1.15 ± 0.088 | 1.53 ± 0.1 | 1.08 ± 0.15 | 1.31 ± 0.087
SSNLYETIIEADKSLPS [YJR042W/NUP85] | 2.76 ± 0.054 | 2.97 ± 0.052 | 2.94 ± 0.039 | 2.96 ± 0.061
LITLFNKGELETQPGCN [RPO31] | 2.71 ± 0.1 | 3.26 ± 0.083 | 2.98 ± 0.097 | 2.94 ± 0.11
RAPIYHSKFRSSSGNTW [YML031W/NDC1] | 2.43 ± 0.11 | 2.34 ± 0.06 | 3.15 ± 0.084 | 2.59 ± 0.06
